Results taken from patent US20020132773A1, “Methods for reducing fat by administration of adiponectin” (Oklahoma Medical Research Foundation, priority 2001, published 2002).
“Also recorded” adds a separate entry of the source.

Key:
[1] = system: C/EBP-α and PPAR-γ in BMS2 preadipocytes; assay: Adipocyte gene expression analysis (Northern blot) in BMS2 cells; format: cell-based
Description: (§1) Poly(A)^+mRNA was prepared from the indicated samples using oligo(dT) columns (Ambion Inc, Austin, Tex.). Aliquots oifpoly(A)^+ mRNA (2 μg) were denatured in formamide and formaldehyde at 65 C and electrophoresed on formaldehyde-containing agarose gels. After capillary transfer to nylon membranes (MSI, Westbourough, Mass.), the RNA was crosslinked by UV exposure. cDNA probes for CCAAT/enhancer binding protein-α(C/EBP-α) and adipocyte P2 (aP2) were obtained from ResGen™ Invitrogen (Huntsville, Ala.) and American Type Culture Collection (Manassas, Va.) respectively. Probes with sizes corresponding to PPAR-γ, COX-1 and COX-2 were prepared as PCR products and all probes were radiolabeled with [α-^32P]dCTP using the random prime labeling system (Redi Prime™ II) purchased from Amersham Pharmacia Biotech.
(§2) Differentiation of BMS2 cells to adipocytes was achieved by treatment with 5 μg/ml insulin and 0.5 mM MIBX for 10 days. Differentiation of MS5 cells to adipocytes was achieved by treatment with 5 μg/ml insulin alone for 15 days. Cultures were treated with adiponectin, PGE2 or Dup-697 from the time of culture initiation. At the end of this period, cultures were photographed and then stained with Nile red to detect lipid accumulation indicative of adipocyte differentiation. The extent of differentiation was estimated by flow cytometry (FACScan; Becton-Dickinson, San Jose, Calif.).

3T3-L1 cells = assay: Adipocyte generation by 3T3-L1 cell line; format: cell-based; conditions: insulin as only inducing agent; adiponectin 10 μg/ml, PGE2 1×10^-6 M
Source text: Normal human bone marrow was collected by biopsy from the posterior iliac crest of healthy young volunteers with informed consent, and used for immunohistchemical analysis of adiponectin. BMS2 and 3T3-L1 cells were maintained in D-MEM (high glucose) supplemented with 10% fetal calf serum (FCS) (HyClone, Logan, Utah). MS5 cells were maintained in α-MEM medium supplemented with 10% FCS. Balb/c mice at 3-6 weeks old: were obtained from Charles Rivers Breeding Labatories (Wilmington, Me.). B6,129S-^Ptgs2tm1Jed (COX-2^+/−) mice and C57BL/6 mice (3-5 weeks old) were purchased from the Jackson Laboratory (Bar Harbor, Me.). High mortality and unavailability precluded use of homozygous COX^−/− animals in these experiments, but a single targeted allele abrogated preadipocyte responses to adiponectin.
Bone marrow cultures represent a complex mixture of hematopoietic cells that mature through interactions with an adherent stromal layer composed of fibroblasts, adipocytes, macrophages and endothelial cells.

BMS2 cells = assay: Adipocyte differentiation of BMS2 cells; format: cell-based; conditions: for fat cell formation (adipogenesis) of BMS2 cells: 5 μg/ml insulin and 0.5 mM MIBX, 10 days, proteins 10 μg/ml, PGE2 and Dup-697 1×10^-6 M, microscopy
Description: as §2

[2] = system: MS5 or BMS2 stromal cell clones; assay: RT-PCR / Northern blot of transcripts in adiponectin-treated preadipocytes; format: cell-based
Description: Total RNA was isolated from MS5 or BMS2 cells treated with adiponectin for various periods using TRIzol Reagent (GIBCO-BRL, Grand Island, N.Y.) and suspended in DEPC-treated water. After treating total RNA with DNase (GIBCO-BRL), cDNA was made using random hexamers and moloney murine leukemia virus reverse transcriptase (GIBCO-BRL). For PCR, 10 μl of the RT mixtures described above were added to PCR buffer containing 1.5 mM MgCl2, 1 U Taq polymerase (Perkin Elmer, Norwalk, Conn.), 2 mM each dNTP, and relevant sense and antisense primers. The DNA in the PCR reaction mixtures was amplified using 25 to 35 cycles of 94 C for 1 min, 55 C for 2 min and 72 C for 3 min. The oligonucleotide primers used for these reactions were 5′-[…]-3′ (SEQ ID NO:5) and 5′-[…]-3′ (SEQ ID NO:6) for COX-2, and 5′-[…]-3′ (SEQ ID NO:7) and 5′-[…]-3′ (SEQ ID NO:8) for COX-1. Primers for TNF-α, TGF-β, interferon (IFN)-α/β/γ, and limitin were also prepared and used in this study.
as §1

MS5 or BMS2 cells = assay: Enzyme-immunoassay for PGE2 in culture supernatants; format: cell-based; conditions: confluent BMS2 or MS5 cells, versus BSA
Description: Confluent MS5 or BMS2 cells prepared in 24-well plates were incubated in 500 μl of media with or without adiponectin. Supernatants from these cultures were examined for the presence of PGE2 using an enzyme-immunoassay kit purchased from Cayman Chemical.

[3] = system: bone marrow cells of heterozygous knockout COX-2+/- mice; assay: Adherent bone marrow cell cultures, COX-2+/- mice; format: cell-based, mouse; conditions: cells derived from COX-2+/- animals, treated weekly for 6 weeks
Description: (§3) Adherent bone marrow cell cultures were established with heterozygous knockout COX-2^+/− mice or normal C57BL/6 mice. BM cells were suspended at 2×10^5 per 6 ml of Dexter culture media and seeded in 25-cm^2 flasks. This cell concentration gives rise to adherent stromal layers without myeloid cell growth. Cultures were treated with adiponecitin or BSA at the time of culture initiation and weekly thereafter for 6 weeks.

[4] = system: CFU-granulocyte-macrophage, CFU-macrophage, CFU-granulocyte, BFU-erythroid, mixed erythroid-myeloid CFU; conditions: cited from earlier work
myeloid cell lines = conditions: cited from earlier work
MS5 cells = assay: Adipocyte differentiation of MS5 cells; format: cell-based; conditions: 5 μg/ml insulin, 15 days; adiponectin 10 μg/ml
Description: as §2

[5] = system: bone marrow cells of normal Balb/c mice (LTBMC); assay: Long-term bone marrow cultures (LTBMC, Dexter cultures); format: cell-based, mouse
Description: LTBMC that support formation of myeloid cells (Dexter cultures) were initiated and maintained by published methods (Dexter, T. M. and Testa, N. G. Methods Cell Biol. 14:387-405 (1976)). Bone marrow cells of normal Balb/c mice (12×10^6) were cultured in 25-cm^2 flasks in 5% CO2 at 33 C. The medium consisted of α-MEM supplemented with 100 nM hydrocortisone and 20% horse serum (HyClone). Cultures were treated with adiponectin or bovine serum albumin (BSA) beginning at culture initiation and thereafter weekly for 6 weeks. In some experiments, adiponectin was omitted from the media after 6 weeks of culture, and maintained for another 6 weeks with medium alone.

[6] = system: normal C57BL/6 bone marrow; assay: Adherent bone marrow cell cultures, normal mice; format: cell-based, mouse; conditions: treated weekly for 6 weeks
Description: as §3

cultured macrophages = conditions: cited from earlier work
[7] = BMS2 cells, Nile red staining, flow cytometry

## CCCCC[C@H](O)/C=C/[C@H]1[C@H](O)CC(=O)[C@@H]1C/C=C\CCCC(=O)O [PGE2, prostaglandin E2, reference compound]
[1]
  increases of C/EBP-α and PPAR-γ expression induced by insulin and MIBX: strongly inhibited
3T3-L1 cells
  generation of adipocytes by 3T3-L1 line: minimally affected
BMS2 cells
  fat cell formation (adipogenesis) of BMS2 cells: blocked
BMS2 cells; [7]
  lipid accumulation induced by insulin and MIBX: completely blocked

B1: adiponectin: adipocyte-specific secretory protein of 244 amino acid residues; human recombinant peptide leader deficient protein, 32 kD monomer with multimers (protein)
chain: ETTTQGPGVLLPLPKGACTGWMAGIPGHPGHNGAPGRDGRDGTPGEKGEKGDPGLIGPKGDIGETGVPGAEGPRGFPGIQGRKGEPGEGAYVYRSAFSVGLETYVTIPNMPIRFTKIFYNQQNHYDGSTGKFHCNIPGLYYFAYHITVYMKDVKVSLFKKDKAMLFTYDQYQENNVDQASGSVLLHLEVGDQVWLQVYGEGERNGLYADNDNDSTFTGFLLYHDTN
[2]
  basal expression of TGF-β, interferon-α/β/γ and limitin: not obviously influenced
[2]; MS5 cells, adiponectin added to cultures
  transcripts corresponding to TNF-α or interferon-β: not detectable
[2]; MS5 or BMS2 stromal cell clones, confirmed by Northern blot
  transcripts for COX-2: upregulated
MS5 or BMS2 cells
  increase in PGE2 secretion: approximately two-fold
[1]
  increases of C/EBP-α and PPAR-γ expression induced by insulin and MIBX: strongly inhibited
[1]; insulin and MIBX, Dup-697 1×10^-6 M
  effect of adiponectin on C/EBP-α and PPAR-γ expression with Dup-697: abrogated
[3]
  effect on adipogenesis in adherent bone marrow cell cultures: minimum effect; also recorded: negligible
[4]
  colony formation from CFU-granulocyte-macrophage, CFU-macrophage and CFU-granulocyte: suppresses colony formation
  colony formation of burst-forming units-erythroid or mixed erythroid-myeloid CFU: no effect
Myeloid cell lines
  number of myeloid cell lines whose proliferation is inhibited: 4 of 9
MS5 cells
  suppression of adipocyte differentiation of MS5 clone: substantial suppression
3T3-L1 cells
  generation of adipocytes by 3T3-L1 line: only slightly inhibited; also recorded: minimally affected
[5]; adiponectin 10 μg/ml in medium, from culture initiation and weekly for 6 weeks
  fat cell formation in LTBMC: completely inhibited
[5]; adiponectin 10 μg/ml, conditions that favor myeloid cell production
  influence on myelopoiesis in LTBMC: no influence
[5]; adiponectin omitted after 6 weeks, another 6 weeks with medium alone
  reversibility of the negative influence on fat cell formation: reversible
[6]
  adipogenesis in adherent bone marrow cell cultures: blocked adipogenesis
Cultured macrophages
  lipopolysaccharide-induced production of tumor necrosis factor-α by cultured macrophages: significantly inhibits
  phagocytic activity of cultured macrophages: significantly inhibits
BMS2 cells
  fat cell formation (adipogenesis) of BMS2 cells: substantial suppression
BMS2 cells; listed as Adiponectin
  fat cell formation (adipogenesis) of BMS2 cells: blocked adipogenesis
BMS2 cells; [7]
  lipid accumulation induced by insulin and MIBX: completely blocked
BMS2 cells; BMS2 cells, Nile red staining, flow cytometry, Dup-697 1×10^-6 M
  response (block of lipid accumulation) to adiponectin with COX-2 inhibitor included: substantially blocked
BMS2 cells; insulin and MIBX, COX-2 inhibitor Dup-697 1×10^-6 M present
  inhibition of BMS2 fat cell formation by adiponectin with Dup-697 present: not observed
